Laboratory results published in publication PMC5875430 (Leukemia, 2013).

How the values were obtained:
[1] = molecular target: T1, class IV granulocyte colony-stimulating factor receptor (alternatively spliced, truncated isoform) (human, UniProt Q99062-4 25-783); test: radioligand binding
T1 sequence (looked up): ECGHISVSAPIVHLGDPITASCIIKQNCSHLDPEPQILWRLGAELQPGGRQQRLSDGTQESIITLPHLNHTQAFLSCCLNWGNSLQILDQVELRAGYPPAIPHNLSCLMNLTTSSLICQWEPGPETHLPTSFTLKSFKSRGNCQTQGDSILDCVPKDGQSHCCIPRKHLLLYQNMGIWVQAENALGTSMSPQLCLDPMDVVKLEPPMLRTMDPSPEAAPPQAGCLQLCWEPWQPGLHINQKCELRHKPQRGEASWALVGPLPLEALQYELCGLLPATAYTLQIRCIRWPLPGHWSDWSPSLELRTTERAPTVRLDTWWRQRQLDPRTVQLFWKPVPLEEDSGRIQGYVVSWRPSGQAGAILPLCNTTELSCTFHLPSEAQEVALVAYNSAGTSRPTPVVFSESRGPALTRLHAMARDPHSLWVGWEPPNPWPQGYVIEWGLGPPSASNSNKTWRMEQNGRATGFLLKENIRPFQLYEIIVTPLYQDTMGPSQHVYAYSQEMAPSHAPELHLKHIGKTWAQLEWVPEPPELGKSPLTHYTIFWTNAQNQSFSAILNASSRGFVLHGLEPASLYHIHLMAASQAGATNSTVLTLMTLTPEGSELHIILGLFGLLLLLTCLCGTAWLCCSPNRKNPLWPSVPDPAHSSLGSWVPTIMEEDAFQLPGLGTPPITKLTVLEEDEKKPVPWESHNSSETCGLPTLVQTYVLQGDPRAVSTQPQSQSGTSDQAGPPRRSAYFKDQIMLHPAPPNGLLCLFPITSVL

[2] = molecular target: T2, class I granulocyte colony-stimulating factor receptor (canonical, full-length isoform) (human, UniProt Q99062 25-836); test: radioligand binding
T2 sequence (looked up): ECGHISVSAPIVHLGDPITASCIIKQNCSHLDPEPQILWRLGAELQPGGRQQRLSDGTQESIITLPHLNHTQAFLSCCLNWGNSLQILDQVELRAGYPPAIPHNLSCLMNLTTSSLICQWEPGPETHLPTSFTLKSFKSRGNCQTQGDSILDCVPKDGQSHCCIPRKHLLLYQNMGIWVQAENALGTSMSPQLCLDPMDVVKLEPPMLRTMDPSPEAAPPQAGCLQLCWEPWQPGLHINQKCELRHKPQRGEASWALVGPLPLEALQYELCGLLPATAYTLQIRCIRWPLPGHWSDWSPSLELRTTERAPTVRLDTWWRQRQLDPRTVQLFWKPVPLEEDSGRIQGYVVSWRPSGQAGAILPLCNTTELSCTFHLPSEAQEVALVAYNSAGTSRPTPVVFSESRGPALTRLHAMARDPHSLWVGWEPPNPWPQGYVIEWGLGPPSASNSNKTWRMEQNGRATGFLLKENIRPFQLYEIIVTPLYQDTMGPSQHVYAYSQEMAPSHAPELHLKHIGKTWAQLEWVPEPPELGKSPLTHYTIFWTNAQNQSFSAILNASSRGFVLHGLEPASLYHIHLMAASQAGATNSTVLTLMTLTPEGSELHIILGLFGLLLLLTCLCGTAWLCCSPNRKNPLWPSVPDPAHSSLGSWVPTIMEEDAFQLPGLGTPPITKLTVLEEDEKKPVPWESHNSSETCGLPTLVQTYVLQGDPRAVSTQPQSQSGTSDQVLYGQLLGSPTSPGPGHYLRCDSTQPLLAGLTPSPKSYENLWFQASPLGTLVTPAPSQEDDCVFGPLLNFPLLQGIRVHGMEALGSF

B1: human granulocyte colony-stimulating factor (ligand, UniProt P09919 31-207, looked up)
chain: TPLGPASSLPQSFLLKCLEQVRKIQGDGAALQEKLVSECATYKLCHPEELVLLGHSLGIPWAPLSSCPSQALQLAGCLSQLHSGLFLYQGLLQALEGISPELGPTLDTLQLDVADFATTIWQQMEELGMAPALQPTQGAMPAFASAFQRRAGGVLVASHLQSFLEVSYRVLRHLAQP
modifications: 125I Bolton-Hunter reagent label (site not stated)
With B1 the Kd [1] was 0.53 nM and the Kd [2] was 0.58 nM.
